Test results reported in article PMC9489782.
One block for each substance: values may come before it.

Key:
[1] = molecular target: catalytically inactive full-length (FL) PAPP-A (E483A) (human)
[2] = molecular target: PAPP-A (1267) (human)
[3] = molecular target: PAPP-A triple mutant L1254A/F1257A/H1211A (human)
[4] = molecular target: PAPP-A^4C4S (C1112S, C1125S, C1130S and C1135S) (human)
[5] = molecular target: PAPP-A^1100-1135* (PAPP-A^1100-1135 replaced with PAPP-A2^1125-1162) (human)
[6] = molecular target: IGFBP5 K128A (human) (UniProt P24593)
[7] = molecular target: FL IGFBP5 (human) (UniProt P24593)
[8] = molecular target: IGFBP5 K128D (human) (UniProt P24593)
[9] = molecular target: Wild type (WT) PAPP-A (auto-cleaved) (human) (UniProt Q13219); assay: SEC-MALS; Superdex200 Increase 10/300 GL in PBS, 0.5 mL/min; PAPP-A and PAPP-A (E483A) 100 uL of 1 mg/mL; PAPP-A2 100 uL of 1, 3 and 6 mg/mL
[10] = molecular target: Wild type (WT) PAPP-A (auto-cleaved) (human) (UniProt Q13219)
[11] = molecular target: N-terminal Alexa Fluor 568 conjugated IGFBP5^121-143 (human); assay: fluorescence polarisation; direct binding: 5 nM N-terminal Alexa Fluor 568 IGFBP5^121-143, serial dilutions of WT PAPP-A (5.65 uM to 33 nM), PBS, room temperature, read at 10 min; EC50 of the fit taken as KD
[12] = molecular target: Wild type (WT) PAPP-A (auto-cleaved) (human) (UniProt Q13219); assay: SEC; Superose 6 Increase 10/300 in 1X PBS, 0.5 mL/min; 0.2 mL of each protein at 1.4 uM; fractions on reduced SDS-PAGE
[13] = molecular target: FAM-labeled FL IGFBP5 (human) (UniProt P24593); assay: fluorescence polarisation; direct binding: 5 nM FAM-labeled FL IGFBP5, serial dilutions of PAPP-A (E483A) (10 uM-50 nM), PBS, room temperature, read at 10 min; EC50 of the fit taken as KD
[14] = molecular target: chimeric PAPP-A^1100-1111* (loop 2 replaced by amino acids 1125-1136 from PAPP-A2) (human)

PAPP-A (1267), sequence (Q13219 23-1627): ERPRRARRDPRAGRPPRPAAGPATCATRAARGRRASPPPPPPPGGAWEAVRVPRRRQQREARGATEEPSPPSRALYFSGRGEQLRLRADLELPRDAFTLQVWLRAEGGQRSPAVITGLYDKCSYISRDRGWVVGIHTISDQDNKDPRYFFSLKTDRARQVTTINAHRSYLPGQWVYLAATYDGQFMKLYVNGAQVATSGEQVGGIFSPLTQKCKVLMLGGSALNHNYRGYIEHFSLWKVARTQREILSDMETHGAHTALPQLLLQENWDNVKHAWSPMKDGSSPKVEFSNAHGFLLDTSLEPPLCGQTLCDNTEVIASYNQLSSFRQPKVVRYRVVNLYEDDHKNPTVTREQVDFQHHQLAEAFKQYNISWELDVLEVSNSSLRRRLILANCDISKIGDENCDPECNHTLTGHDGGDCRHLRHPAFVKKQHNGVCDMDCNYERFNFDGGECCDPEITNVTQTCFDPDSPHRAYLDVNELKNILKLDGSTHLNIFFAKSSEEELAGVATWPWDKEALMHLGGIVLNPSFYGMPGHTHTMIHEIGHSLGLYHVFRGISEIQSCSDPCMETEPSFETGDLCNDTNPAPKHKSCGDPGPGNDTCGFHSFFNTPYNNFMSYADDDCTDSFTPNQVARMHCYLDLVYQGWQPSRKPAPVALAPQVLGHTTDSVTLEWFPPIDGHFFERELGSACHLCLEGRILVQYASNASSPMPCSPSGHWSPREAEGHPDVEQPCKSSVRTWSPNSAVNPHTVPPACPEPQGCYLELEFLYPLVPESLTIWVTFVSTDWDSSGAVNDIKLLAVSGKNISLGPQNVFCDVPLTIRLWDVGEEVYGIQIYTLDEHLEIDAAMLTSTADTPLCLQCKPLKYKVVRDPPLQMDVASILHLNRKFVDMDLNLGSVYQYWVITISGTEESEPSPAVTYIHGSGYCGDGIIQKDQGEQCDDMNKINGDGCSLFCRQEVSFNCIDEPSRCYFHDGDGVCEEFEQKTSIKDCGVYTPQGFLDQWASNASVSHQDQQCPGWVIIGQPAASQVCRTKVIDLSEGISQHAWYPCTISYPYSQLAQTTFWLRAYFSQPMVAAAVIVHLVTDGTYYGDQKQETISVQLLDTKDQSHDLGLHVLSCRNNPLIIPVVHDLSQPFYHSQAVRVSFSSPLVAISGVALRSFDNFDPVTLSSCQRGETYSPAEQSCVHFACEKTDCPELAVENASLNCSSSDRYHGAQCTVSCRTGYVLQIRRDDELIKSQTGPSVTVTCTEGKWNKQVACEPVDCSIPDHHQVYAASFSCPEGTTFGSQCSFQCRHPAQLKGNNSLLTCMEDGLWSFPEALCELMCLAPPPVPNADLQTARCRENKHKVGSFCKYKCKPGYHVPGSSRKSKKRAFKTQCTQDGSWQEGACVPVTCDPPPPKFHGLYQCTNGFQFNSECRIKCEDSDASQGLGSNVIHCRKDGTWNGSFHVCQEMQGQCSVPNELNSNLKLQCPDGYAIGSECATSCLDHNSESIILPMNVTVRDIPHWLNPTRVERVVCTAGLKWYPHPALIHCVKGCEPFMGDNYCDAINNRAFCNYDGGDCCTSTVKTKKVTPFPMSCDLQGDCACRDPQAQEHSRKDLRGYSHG

EC50 of IGFBP4 cleavage (400 nM IGFBP4/700 nM IGF1) by the co-expressed PAPP-A (FL, E483A)/PAPP-A (1132) heterodimer, gel-based assay, 37 °C, 4 h [1]: 0.466 nM
Substance: C-terminally truncated PAPP-A (1132) (domain or fragment)

EC50 of IGFBP4 cleavage (400 nM IGFBP4/700 nM IGF1) by PAPP-A (1267), gel-based assay, 37 °C, 4 h [2]: 0.597 nM
Substance: PAPP-A (1267) (domain or fragment)

EC50 of IGFBP4 cleavage (400 nM IGFBP4/700 nM IGF1) by the triple mutant, gel-based assay, 37 °C, 4 h [3]: 2.6 nM
Substance: PAPP-A triple mutant L1254A/F1257A/H1211A (enzyme)

EC50 of IGFBP4 cleavage (400 nM IGFBP4/700 nM IGF1) by the variant, gel-based assay, 37 °C, 4 h [4]: 0.402 nM
Substance: PAPP-A^4C4S (C1112S, C1125S, C1130S and C1135S) (enzyme)

EC50 of IGFBP4 cleavage (400 nM IGFBP4/700 nM IGF1) by the variant, gel-based assay, 37 °C, 4 h [5]: 0.954 nM
Substance: PAPP-A^1100-1135* (PAPP-A^1100-1135 replaced with PAPP-A2^1125-1162) (enzyme)

EC50 (PAPP-A concentration) of proteolysis of 500 nM IGFBP5 K128A by WT PAPP-A, gel-based assay, 37 °C, 4 h [6]: 1.3 nM
EC50 (PAPP-A concentration) of proteolysis of 500 nM WT IGFBP5 by WT PAPP-A, gel-based assay, 37 °C, 4 h [7]: 0.053 nM
EC50 (PAPP-A concentration) of proteolysis of 500 nM IGFBP5 K128D by WT PAPP-A, gel-based assay, 37 °C, 4 h [8]: 15.3 nM
stoichiometry N [9]: 2
EC50 of IGFBP4 cleavage (400 nM IGFBP4/700 nM IGF1) by WT PAPP-A, gel-based assay, 37 °C, 4 h [10]: 0.026 nM
Kd [11]: 380 nM
stoichiometry N [12]: 2
Substance: Wild type (WT) PAPP-A (auto-cleaved) (from UniProt Q13219 82-1627) (enzyme)

Kd [13]: 250 nM
Substance: catalytically inactive full-length (FL) PAPP-A (E483A) (enzyme)

EC50 of IGFBP4 cleavage (400 nM IGFBP4/700 nM IGF1) by the variant, gel-based assay, 37 °C, 4 h [14]: 0.519 nM
Substance: chimeric PAPP-A^1100-1111* (loop 2 replaced by amino acids 1125-1136 from PAPP-A2) (enzyme)
